Patent US20250213686A1 (published 2025)

T1: Preproinsulin (PPI) peptide on HLA-DRA*01:01 / HLA-DRB1*04:01 (human)
T1 peptide: SLQPLALEGSLQKRG

T2: exodeoxyribonuclease V subunit beta [Chlamydia caviae] (IGRP305_324_path12) peptide on HLA-DRA*01:01 / … (human)
T2 peptide: CSPFLQIPSYEPIEY

T3: hypothetical protein V495_01361 [Pseudogymnoascus sp. VKM F-4514 (FW-929)] (IGRP305_324_path15) peptide on … (human)
T3 peptide: SAMFLDIPTHPEEHS

T4: hypothetical protein ECU05_1220 [Encephalitozoon cuniculi GB-M1] (IGRP305_324_path19) peptide on … (human)
T4 peptide: QQKFLKNIDTHEEAE

T5: WD domain, G-beta repeat-containing protein [Toxoplasma gondii ARI] (IGRP305_324_path20) peptide on … (human)
T5 peptide: ESLFLQLSTHTEASA

T6: hypothetical protein KMI_05g09430 [Encephalitozoon hellem] (IGRP305_324_path18) peptide on HLA-DRA*01:01 / … (human)
T6 peptide: LSEFLKIPNHEITLL

T7: UDP-N-acetylglucosamine--N-acetylmuramyl-(pentapeptide) pyrophosphoryl-undecaprenol N-acetylglucosamine … (human)
T7 peptide: AASFLHIPYFTHECD

T8: DUF4435 domain-containing protein [Bacillus toyonensis] (IGRP305_324_path5) peptide on HLA-DRA*01:01 / … (human)
T8 peptide: YDEVLQIPTHQENTQ

T9: hypothetical protein T551_03071 [Pneumocystis jirovecii RU7] (IGRP305_324_path17) peptide on HLA-DRA*01:01 / … (human)
T9 peptide: FTDFLNIPSYEELND

T10: TPA: UDP-N-acetylglucosamine--N-acetylmuramyl-(pentapeptide) pyrophosphoryl-undecaprenol N-acetylglucosamine … (human)
T10 peptide: AARFLHIPYYTHECD

T11: hypothetical protein GX51_07420 [Blastomyces parvus] (IGRP305_324_path16) peptide on HLA-DRA*01:01 / … (human)
T11 peptide: KYEFLPIPTYEEATS

T12: undecaprenyldiphospho-muramoylpentapeptide beta-N-acetylglucosaminyltransferase [Treponema sp.] … (human)
T12 peptide: AAKFLHIPVFTHECD


Key:
IGRP (islet-specific …) [1] = target: T13, IGRP (islet-specific glucose-6-phosphatase-related protein) peptide on HLA-DRA*01:01 / HLA-DRB1*04:01 (human); experiment: proliferation
[2] = target: T1, Preproinsulin (PPI) peptide on …; experiment: proliferation
IGRP (islet-specific …) [3] = target: T13, IGRP (islet-specific …); experiment: upper end of the range; CD154 surface expression intensity; LV-transduced CD4+ T cells 3:1 with peptide-pulsed HLA-DR4 K562 cells, 20 h; full-length, on cells
[4] = target: T2, exodeoxyribonuclease V subunit beta …; experiment: activation reporter or marker
[5] = target: T3, hypothetical protein V495_01361 …; experiment: activation reporter or marker
[6] = target: T4, hypothetical protein ECU05_1220 …; experiment: activation reporter or marker
[7] = target: T5, WD domain, G-beta repeat-containing …; experiment: activation reporter or marker
[8] = target: T6, hypothetical protein KMI_05g09430 …; experiment: activation reporter or marker
[9] = target: T7, UDP-N-acetylglucosamine--N-acetylmuramyl …; experiment: activation reporter or marker
[10] = target: T8, DUF4435 domain-containing protein …; experiment: activation reporter or marker
[11] = target: T9, hypothetical protein T551_03071 …; experiment: activation reporter or marker
[12] = target: T10, TPA: …; experiment: activation reporter or marker
[13] = target: T11, hypothetical protein GX51_07420 …; experiment: activation reporter or marker
[14] = target: T12, undecaprenyldiphospho-muramoylpentapepti …; experiment: activation reporter or marker
IGRP (islet-specific …) [15] = target: T13, IGRP (islet-specific …); experiment: lower end of the range; CD154 surface expression intensity; LV-transduced CD4+ T cells 3:1 with peptide-pulsed HLA-DR4 K562 cells, 20 h; full-length, on cells
IGRP (islet-specific …) [16] = target: T13, IGRP (islet-specific …); experiment: upper end of the range; % CD137-expressing cells; LV-transduced CD4+ T cells 3:1 with peptide-pulsed HLA-DR4 K562 cells, 20 h; full-length, on cells
IGRP (islet-specific …) [17] = target: T13, IGRP (islet-specific …); experiment: lower end of the range; % CD137-expressing cells; LV-transduced CD4+ T cells 3:1 with peptide-pulsed HLA-DR4 K562 cells, 20 h; full-length, on cells

| Binder | binding result (IGRP (islet-specific …) [1]) | binding result [2] | EC50 of peptide (IGRP (islet-specific …) [3]) | binding result [4] | binding result [5] | binding result [6] | binding result [7] | binding result [8] | binding result [9] | binding result [10] | binding result [11] | binding result [12] | binding result [13] | binding result [14] | EC50 of peptide (IGRP (islet-specific …) [15]) | EC50 of peptide (IGRP (islet-specific …) [16]) | EC50 of peptide (IGRP (islet-specific …) [17]) |
| --- | --- | --- | --- | --- | --- | --- | --- | --- | --- | --- | --- | --- | --- | --- | --- | --- | --- |
| T1D4 TCR (TCR, V domains shown) Valpha: KDQVFQPSTVASSEGAVVEIFCNHSVSNAYNFFWYLHFPGCAPRLLVKGSKPSQQGRYNMTYERFSSSLLILQVREADAAVYYCAVEDLNQAGTALIFGKGTTLSVSS Vbeta: KAGVTQTPRYLIKTRGQQVTLSCSPISGHRSVSWYQQTPGQGLQFLFEYFSETQRNKGNFPGRFSGRQFSNSRSEMNVSTLELGDSALYLCASSLALGQGNQQFFGPGTRLTVL | no recognition | no recognition | – | – | – | – | – | – | – | – | – | – | – | – | – | – | – |
| T1D2 TCR (TCR, V domains shown) Valpha: DQQVKQNSPSLSVQEGRISILNCDYTNSMFDYFLWYKKYPAEGPTFLISISSIKDKNEDGRFTVFLNKSAKHLSLHIVPSQPGDSAVYFCAATRTSGTYKYIFGTGTRLKVLA Vbeta: NAGVTQTPKFRILKIGQSMTLQCTQDMNHNYMYWYRQDPGMGLKLIYYSVGAGITDKGEVPNGYNVSRSTTEDFPLRLELAAPSQTSVYFCASSPWGAGGTDTQYFGPGTRLTVL | – | – | ≤ 0.3 µg/mL | no recognition | no recognition | no recognition | no recognition | no recognition | no recognition | no recognition | no recognition | no recognition | no recognition | no recognition | ≥ 0.1 µg/mL | ≤ 0.1 µg/mL | ≥ 0.03 µg/mL |
